Data as given in US10618964B2, “Nanobody against IL-6R” (Ablynx N.V., dated 2020).

Assays:
[1] = target: soluble IL-6R in cynomolgous plasma (cynomolgus monkey, UniProt A0A2K5WN54); test: ELISA 2, periplasmic extract; competitor IL-6; cyno plasma
Method: (§1) In this ELISA, plasma was used as a source of native soluble IL-6R. By this assay, we aimed to confirm the alphascreen results and to get a view on the cross-reactivity of the clones towards cynomolgous IL-6R. Human plasma (ELISA 1 and ELISA 3) or cynomolgous plasma (ELISA 2) were pre-incubated with a dilution of the periplasmic extract of the clones together with human IL-6 (50 ng/mL). Subsequently, plasma soluble IL-6R was captured on a B-N12 coated plate and bound IL-6 was detected using anti-IL-6 antibody BAF206 and streptavidin-HRP (ELISA 1 and ELISA 2). The ELISA signal dropped when the Nanobody clone could compete with IL-6 for binding to soluble IL-6R. ELISA 3 was a parallel ELISA in which the detection antibody was replaced by anti-IL-6R antibody BAF227 to exclude false positive competitors, which actually compete with B-N12 (e.g. family 2). Depicted in Table C-5 is the ratio of the OD450 value of the test sample versus the blank OD450 (mock sample). Clones were ordered based on ELISA 1 data.

[2] = target: T1, native soluble IL-6R in human plasma (human, UniProt P08887); test: ELISA 1, periplasmic extract; competitor IL-6; human plasma
Method: as §1

[3] = target: T1, native soluble IL-6R in human plasma; test: ELISA 3, periplasmic extract; competitor BN-12; human plasma
Method: as §1

| OD450 ratio sample/blank [1] | OD450 ratio sample/blank [2] | OD450 ratio sample/blank [3] | Binder |
| --- | --- | --- | --- |
| 0.8 | 1.05 | 1.02 | IL6RPMP108F7 (VHH) VHH: EVQLVESGGGLVQAGGSLRLSCTASGRTFSDYDMGWFRQAPGKERECVAVIDTNGDNTLTVGSVKGRFAISRDNAKNTVYLQMNSLLPEDTAVYTCAAGAWSSLRSTAANYWGQGTQVTVSS |
| 0.795 | 1.07 | 1.04 | IL6RPMP108C10 (VHH) VHH: EVQLVESGGGLVQPGGSLRLSCTASGRTFSDYDMGWFRQAPGKERECVAVIDTNGDNTLTVGSVKGRFAISRDNAKNTVYLQMNSLLPEDTAVYTCAAGAWSSLRSTAANYWGQGTQVTVSS |
| 0.838 | 1.34 | 1.03 | IL6RPMP104E4 (VHH) VHH: EVQLVESGGGTVQAGGSLKLSCAASGRTFTNYAMGWFRQAPGKEREFVAAIAYATHFADSVKGRFTISRGNAKNTVYLQMNSLKPEDTAVYYCAADLSLSKMVSKITSDMDYWGKGTLVTVSS |
| 0.918 | 1.2 | 1.04 | IL6RPMP107B4 (VHH) VHH: EVQLVESGGGLVQAGGSLRLSCVASGLRLNMHRMGWFRQAPGKEREFVARIFTDDGDSYYADSVQGRFTISGDNAKNTVYLQMNSLKPEDTGVYFCAAGYMSGAESPIGYDNWGQGTQVTVSS |
| 0.993 | 2.04 | 1.01 | IL6RPMP104E7 (VHH) VHH: EVQLVESGGGLVQAGGSLRLSCAAGGSIFSINAMGWYRQAPGKQRELVASITSGGSTTYADSVKGRFTISRDNAKDTVYLQMNSLKPEDTAVYYCNAHIRFPFPNDYWGQGTQVTVSS |
| 0.0351 | 0.139 | 1.01 | IL6RPMP120C10 (VHH) VHH: EVQLVESGGGLVQAGGSLSLSCATSGRTISDDTMAWFRQAPGKEREFVAIITFNGARTHYSDSVRDRFTISRDNAKNTVYLQMNSLKSEDTAVYYCAASTKYYSSTYNYIHPAFYDIWGQGTQVTVSS |
| 1.13 | 1.27 | 1 | IL6RPMP106D6 (VHH) VHH: EVQLVESGGGLVQAGGSLRLSCAASGFTFDDYAIGWFRQAPGKEREGVSCMISSDGSTYYADSVKGRFTISSDNAKNTVYLQMDSLKPEDTAVYYCAADLSLYGCYVGDRDLYDYDYWGQGTQVTVSS |

Further lines, the binder ahead of its results:

| Binder | OD450 ratio sample/blank [1] | OD450 ratio sample/blank [2] | OD450 ratio sample/blank [3] |
| --- | --- | --- | --- |
| IL6RPMP104B9 (VHH) VHH: EVQLVESGGGLVQAGGSLRLSCTASGRTFSDYDMGWFRQAPGKERECVAIIDTNGDNTLIVGSVKGRFAISSDNAKNTVYLQMNSLLPEDTAVYTCAAGVWSSLRHTAANYWGQGTQVTVSS | 0.766 | 2.06 | 1 |
| IL6RPMP101D6 (VHH) VHH: EVQLVESGGGLVQAGGSLRLSCTASGRTFSDYDMGWFRQAPGKERECVAIIDTNGDNTLIVGSVKGRFAISSDNAKNTVYLQMNSLLPEDTAVYTCAAGVWSSLRHTAANYWGQGTQVTVSS | 0.731 | 1.09 | 0.948 |
| IL6RPMP101A3 (VHH) VHH: EVQLVESGGGLVQAGGPLRLSCTASGRTFTDYDMGWFRQAPGKEREVVAIIDTNGDNTLTVGSVKGRFAISSDNAKNTVYLQMNSLLPEDTAVYTCAAGAWSALRRSVANYWGQGTQVTVSS | 0.687 | 1.08 | 0.946 |
| IL6RPMP101B2 (VHH) VHH: EVQLVESGGGLVQAGGSLRLSCTASGRTFTDYDMGWFRQAPGKEREVVAIIDTNGDNTLTVGSVKGRFAISSDNAKNTVYLQMNSLLPEDTAVYTCAAGAWSALRRSVANYWGQGTQVTVSS | 0.727 | 1.09 | 0.909 |
| IL6RPMP101G3 (VHH) VHH: EVQLVESGGGLVQAGGSLRLSCTASGRTFSDYDMGWFRQAPGKERECVAIIDTNGDNTLIVGSVKGRFAISSDNAKNTVYLQMNSLLPEDTAVYTCAAGVWSSLRHTAANYWGQGTQVTVSS | 0.773 | 1.08 | 0.892 |
| IL6RPMP104A8 (VHH) VHH: EVQLVESGGGLVQAGGSLRLSCTASGRTFSDYDMGWFRQAPGKEREFVAVIDTNGGHTLTVGSVKGRFAISSDNAKNTVYLQMNSLVPEDTAVYTCAAGAWSSLRKTAASYWGQGTQVTVSS | 0.725 | 2.04 | 0.973 |
| IL6RPMP100D11 (VHH) VHH: EVQLVESGGGLVQAGDSLRLSCLASGRSFKDDAMGWFRQAPGKEREFVSGIDWRGNIVDAESVKGRFTISRENAKNTLYLQMNHLKPEDTAVYYCAASSVFSDLRYRKNPKYWGQGTQVTVSS | 0.962 | 1.9 | 0.969 |
| IL6RPMP103A4 (VHH) VHH: EVQLVESGGGLVQPGGSLRLSCAASGSIFSINTMGWYRQVPGKQRELVATVRSGSITNYADSVQDRFTITRDIDENTVYLQMNSLKPEDTAVYYCLTRASVPGRGYQDYWGQGTQVTVSS | 0.916 | 1.04 | 1.03 |
| IL6RPMP103A2 (VHH) VHH: EVQLVESGGGLVQPGGSLRLSCAASGSIFSINTMGWYRQVPGKQRELVATVRSGSITNYADSVQDQFTITRDIDENTVYLQMNSLKPEDTAVYYCLTRASVPGRGYQDYWGQGTQVTVSS | 1.09 | 2.04 | 0.993 |
| IL6RPMP102G3 (VHH) VHH: EVQLVESGGGLVQAGGSLRLSCAASGSIDRINAMGWYRQAPGKQRDFLAVITDGDKTLYADSVKGRFTISNDNAKNTVYLQMNSLKPEDTAVYYCNAYQAGWGDYWGQGTQVTVSS | 1.32 | 1.76 | 0.968 |
| IL6RPMP101G1 (VHH) VHH: EVQLVESGGGLVQPGGSLRLSCAASGGTLDYYAIGWFRQAPGKEREGVSCISSSDGSTYYASSVKGRFTVSRDKAKNTVYLQMNSLKPEDTAVYYCAFVFTTAQAMGVPNNPYEYDFWGQGTQVTVSS | 0.0937 | 0.148 | 0.639 |
| IL6RPMP103B2 (VHH) VHH: EVQLVESGGGLVQPGGSLRLSCAASGSTFSINMMAWYCQAPGKQRELVASISSGGGINYADSVKGRFTISRDYAENSVDLQMNSLKPEDTAVYYCNARGTYLNGDHYSTNYNSWGQGTQVTVSS | 0.81 | 1.76 | 1.02 |
